From patent publication US20150210756A1 (NEW YORK UNIVERSITY, published 2015) come the findings set out here.

For assay [1], the target named is T1, LukS-PV (S. aureus).
T1 construct: also called Panton-Valentine leukocidin S; LukS-PV subunit of the PVL leukotoxin
T1 chain: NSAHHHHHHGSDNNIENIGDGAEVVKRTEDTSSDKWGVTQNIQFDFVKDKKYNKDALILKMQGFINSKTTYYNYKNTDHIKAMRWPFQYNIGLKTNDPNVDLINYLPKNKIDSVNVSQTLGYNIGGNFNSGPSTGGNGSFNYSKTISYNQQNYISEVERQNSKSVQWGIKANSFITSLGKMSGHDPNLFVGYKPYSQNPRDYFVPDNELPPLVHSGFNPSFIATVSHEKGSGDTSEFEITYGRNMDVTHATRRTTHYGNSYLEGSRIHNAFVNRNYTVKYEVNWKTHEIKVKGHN
Description: ELISA on purified, recombinant LukS-PV.

For assay [2], the target named is T2, SdgB-glycosylated recombinant SdrC4 protein (S. aureus, UniProt O86487 51-910).
T2 construct: also called SdgB-glycosylated SdrC4 protein
T2 sequence (O86487 51-910, tags left off): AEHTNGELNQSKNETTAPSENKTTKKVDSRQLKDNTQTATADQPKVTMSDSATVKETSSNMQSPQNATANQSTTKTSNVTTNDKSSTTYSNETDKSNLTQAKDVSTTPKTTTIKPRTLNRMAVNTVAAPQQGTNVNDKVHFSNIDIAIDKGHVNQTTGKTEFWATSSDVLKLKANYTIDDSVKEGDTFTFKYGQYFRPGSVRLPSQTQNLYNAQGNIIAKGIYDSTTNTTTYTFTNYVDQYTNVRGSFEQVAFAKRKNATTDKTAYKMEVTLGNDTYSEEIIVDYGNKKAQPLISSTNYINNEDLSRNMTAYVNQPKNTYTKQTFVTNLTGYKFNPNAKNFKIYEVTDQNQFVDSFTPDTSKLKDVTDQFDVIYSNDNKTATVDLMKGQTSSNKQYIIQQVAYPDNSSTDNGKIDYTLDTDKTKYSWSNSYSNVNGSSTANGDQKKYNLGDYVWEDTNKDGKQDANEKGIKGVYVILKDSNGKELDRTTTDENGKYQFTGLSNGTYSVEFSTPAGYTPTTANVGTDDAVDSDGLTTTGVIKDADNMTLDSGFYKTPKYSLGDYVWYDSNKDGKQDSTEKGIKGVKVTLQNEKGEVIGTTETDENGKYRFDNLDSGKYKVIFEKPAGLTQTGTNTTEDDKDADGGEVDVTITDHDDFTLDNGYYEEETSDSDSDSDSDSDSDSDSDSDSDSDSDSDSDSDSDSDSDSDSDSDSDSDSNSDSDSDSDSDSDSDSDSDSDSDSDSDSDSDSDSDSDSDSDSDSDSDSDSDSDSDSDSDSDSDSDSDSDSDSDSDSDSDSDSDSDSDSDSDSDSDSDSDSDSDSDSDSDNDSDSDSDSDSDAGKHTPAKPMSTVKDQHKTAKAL
Briefly: ELISA on coated SdgB-glycosylated SdrC4.

For assay [3], the target named is T3, HlgC (S. aureus, UniProt Q07227 30-315).
T3 construct: also called gamma hemolysin C; HlgC subunit
T3 sequence: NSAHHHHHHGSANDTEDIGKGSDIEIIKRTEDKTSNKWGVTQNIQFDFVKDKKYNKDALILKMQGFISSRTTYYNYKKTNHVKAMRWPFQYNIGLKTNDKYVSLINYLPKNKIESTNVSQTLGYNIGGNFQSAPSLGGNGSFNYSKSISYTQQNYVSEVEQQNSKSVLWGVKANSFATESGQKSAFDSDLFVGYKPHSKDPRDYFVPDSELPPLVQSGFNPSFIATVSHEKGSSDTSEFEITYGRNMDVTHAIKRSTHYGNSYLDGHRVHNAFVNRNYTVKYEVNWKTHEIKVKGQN
Briefly: ELISA on purified, recombinant HlgC.

Assay [4] deals with T4, HlgA (S. aureus, UniProt P0A071 30-309).
T4 construct: also called gamma hemolysin A; HlgA subunit
T4 sequence: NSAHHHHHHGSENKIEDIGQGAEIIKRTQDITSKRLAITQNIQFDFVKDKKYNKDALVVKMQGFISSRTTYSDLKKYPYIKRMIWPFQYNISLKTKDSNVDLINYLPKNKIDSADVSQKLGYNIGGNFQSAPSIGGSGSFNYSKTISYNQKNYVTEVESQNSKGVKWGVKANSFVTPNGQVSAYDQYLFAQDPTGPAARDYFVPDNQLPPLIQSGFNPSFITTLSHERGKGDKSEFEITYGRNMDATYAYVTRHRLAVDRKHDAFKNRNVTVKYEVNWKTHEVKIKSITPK
Briefly: ELISA on purified, recombinant HlgA.

The target in assay [5] is T5, Protein A (Staphylococcus aureus, UniProt P38507 37-477).
T5 construct: also called S. aureus Protein A; SpA
Description: western blot of S. aureus lysates.

Assay [6] deals with human FcγRI (human, UniProt P12314 16-288). Description: AlphaScreen competition against biotinylated IgG1.
human FcγRI, sequence (P12314 16-288 limits assumed): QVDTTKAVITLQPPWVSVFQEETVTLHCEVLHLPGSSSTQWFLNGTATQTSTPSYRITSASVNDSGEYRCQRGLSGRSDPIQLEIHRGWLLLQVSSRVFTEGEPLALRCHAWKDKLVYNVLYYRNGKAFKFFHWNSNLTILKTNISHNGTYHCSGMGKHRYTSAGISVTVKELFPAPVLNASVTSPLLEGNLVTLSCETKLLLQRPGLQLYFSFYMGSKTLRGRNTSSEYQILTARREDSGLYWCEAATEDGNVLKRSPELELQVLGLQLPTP
Assay [7] addresses human FcγRIIIa (V158) (human, UniProt P08637 17-208). Briefly: AlphaScreen competition against biotinylated IgG1.
The target in assay [8] is T5, Protein A. Description: direct ELISA on coated biotinylated Protein A.

human FcγRIIIa (V158), sequence (P08637 17-208 F176V limits assumed): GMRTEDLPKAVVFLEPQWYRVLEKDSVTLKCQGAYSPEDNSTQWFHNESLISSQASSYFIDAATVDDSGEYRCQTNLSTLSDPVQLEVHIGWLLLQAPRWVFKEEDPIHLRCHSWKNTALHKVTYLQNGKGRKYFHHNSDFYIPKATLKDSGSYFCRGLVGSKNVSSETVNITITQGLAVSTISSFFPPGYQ

B1: Luk540 (designed binder)
chain: LPAPKNLVVSRVTEDSARLSWTAPDAAFDSFHIEYPEDTEQGEAIVLTVPGSERSYDLTGLKPGTEYNVHITGVKGGSKSAPLSAIFTT
As to B1, in assay [1], the binding result is recorded as “binds”.

B2: pagibaximab (antibody, V domains shown)
VH: EVMLVESGGGLVQPKGSLKLSCAASGFTFNNYAMNWVRQAPGKGLEWVARIRSKSNNYATFYADSVKDRFTISRDDSQSMLYLQMNNLKTEDTAMYYCVRRGASGIDYAMDYWGQGTSLTVSS
VL: DIVLSQSPAILSASPGEKVTMTCRASSSVNYMHWYQQKPGSSPKPWISATSNLASGVPARFSGSGSGTSYSLTISRVEAEDAATYYCQQWSSNPPTFGGGTMLEIKR
notes: also called anti-LTA mAb
Turning to B2, the binding result in assay [2] is listed as “no binding (tested: starting at 10 µg/mL)”.

B3: Luk188 (designed binder)
chain: LPAPKNLVVSRVTEDSARLSWTAPDAAFDSFHIHYWEFNPAGEAIVLTVPGSERSYDLTGLKPGTEYFVGIHGVKGGGISWPLSAIFTT
For the molecule B3, the binding result in assay [3] is “binds”.

B4: Luk151 (designed binder)
chain: LPAPKNLVVSRVTEDSARLSWTAPDAAFDSFGITYTEVYWWGEAIVLTVPGSERSYDLTGLKPGTEYTVTIPGVKGGWISAPLSAIFTT
Consider B4, for which, in assay [4], the binding result is on record as “binds”.

B5: Luk357 (designed binder)
chain: LPAPKNLVVSRVTEDSARLSWTAPDAAFDSFTIHYFESLLTGEAISLVVPGSERSYDLTGLKPGTEYLVPIYGVKGGFISQPLIAIFTT
For the molecule B5, in assay [3], the binding result is recorded as “binds”.

B6: Luk129 (designed binder)
chain: LPAPKNLVVSRVTEDSARLSWTAPDAAFDSFNINYPEEFHGGEAIVLTVPGSERSYDLTGLKPGTEYEVWIWGVKGGSSSNPLSAIFTT
Turning to B6, in assay [4], the binding result is on record as “binds”.

B7: Luk647 (designed binder)
chain: LPAPKNLVVSRVTEDSARLSWTAPDAAFDSFSIYYGEWDPTGEAIVLTVPGSERSYDLTGLKPGTEYWVLIVGVKGGSTSAPLSAIFTT
For B7, in assay [1], the binding result is recorded as “binds”.

B8: mAb 5133 A6 (Construct 3, CR5133 A6) (antibody)
heavy: not shown
light: EIVLTQSPATLSLSPGERATLSCRASQSVSGYLGWYQQKPGQAPRLLIYGASSRATGIPDRFSGSGSGTDFTLTISRLEPEDFAVYYCQQYGSSPLTFGGGTKLEIKRTVAAPSVFIFPPSDEQLKSGTASVVCLLNNFYPREAKVQWKVDNALQSGNSQESVTEQDSKDSTYSLSSTLTLSKADYEKHKVYACEVTHQGLSSPVTKSFNRGEC
Consider B8, for which the results for the binding result in assay [5], in assay [6] and in assay [7] were “no binding (tested: 2 µg/mL)”, “binds” and “binds”, respectively.

B9: CR5133 PRASA A6 HC-AB (Construct 6) (other)
heavy: EVQLVETGGGLVKPGGSLRLSCSASRFSFRDYYMTWIRQAPGKGPEWVSHISGSGSTIYYADSVRGRFTISRDNAKSSLYLQMDSLQADDTAVYYCARGGRATSYYWVHWGPGTLVTVSSASTKGPSVFPLAPSSKSTSGGTAALGCLVKDYFPEPVTVSWNSGALTSGVHTFPAVLQSSGLYSLSSVVTVPSSSLGTQTYICNVNHKPSNTKVDKKVEPKSCDKTHTCPPCPAPPVAGPDVFLFPPKPKDTLMISRTPEVTCVVVDVSHEDPEVKFNWYVDGVEVHNAKTKPREEQYNSTYRVVSVLTVLHQDWLNGKEYKCKVSNAALPAPIAKTISKAKGQPREPQVYTLPPSRDELTKNQVSLTCLVKGFYPSDIAVEWESNGQPENNYKTTPPVLDSDGSFFLYSKLTVDKSRWQQGNVFSCSVMHEALHNRFTQKSLSLSPGKGGGGSGGGGSGGGGSGGGGSMLPAPKNLVVSRVTEDSARLSWTAPDAAFDSFWITYEEKFYRGEAIVLTVPGSERSYDLTGLKPGTEYKVWIVGVKGGQGSWPLSAIFTT
light: B8 light
notes: also called mAb 5133 PRASA A6 HC LukAB
Regarding B9, the binding result in assay [8] is “no binding”; in assay [6], “no binding”; in assay [7], “binds”.

B10: mAb 5133 PRASA A6 (Construct 4, CR5133 PRASA A6) (antibody)
heavy: EVQLVETGGGLVKPGGSLRLSCSASRFSFRDYYMTWIRQAPGKGPEWVSHISGSGSTIYYADSVRGRFTISRDNAKSSLYLQMDSLQADDTAVYYCARGGRATSYYWVHWGPGTLVTVSSASTKGPSVFPLAPSSKSTSGGTAALGCLVKDYFPEPVTVSWNSGALTSGVHTFPAVLQSSGLYSLSSVVTVPSSSLGTQTYICNVNHKPSNTKVDKKVEPKSCDKTHTCPPCPAPPVAGPDVFLFPPKPKDTLMISRTPEVTCVVVDVSHEDPEVKFNWYVDGVEVHNAKTKPREEQYNSTYRVVSVLTVLHQDWLNGKEYKCKVSNAALPAPIAKTISKAKGQPREPQVYTLPPSRDELTKNQVSLTCLVKGFYPSDIAVEWESNGQPENNYKTTPPVLDSDGSFFLYSKLTVDKSRWQQGNVFSCSVMHEALHNRFTQKSLSLSPGK
light: B8 light
notes: also called PRASA A6 parental mAb
Take B10: the binding result in assay [5] was “no binding (tested: 2 µg/mL)”; in assay [6], “no binding”; in assay [7] it was “binds”.

B11: CR5133 PRASA A6 LC-D (Construct 5) (other)
heavy: B10 heavy
light: EIVLTQSPATLSLSPGERATLSCRASQSVSGYLGWYQQKPGQAPRLLIYGASSRATGIPDRFSGSGSGTDFTLTISRLEPEDFAVYYCQQYGSSPLTFGGGTKLEIKRTVAAPSVFIFPPSDEQLKSGTASVVCLLNNFYPREAKVQWKVDNALQSGNSQESVTEQDSKDSTYSLSSTLTLSKADYEKHKVYACEVTHQGLSSPVTKSFNRGECGGGGSGGGGSGGGGSGGGGSLPAPKNLVVSRVTEDSARLSWRAKPWAPKFDSFLIQYQESEKVGEAIVLTVPGSERSYDLTGLKPGTEYTVSIYGVKASEKFIESNPLSAIFTT
Consider B11, for which the binding result was “no binding” in assay [8], “no binding” in assay [6] and “binds” in assay [7].

B12: CR5133 PRASA A6 LC-D HC-AB (Construct 7) (other)
heavy: B9 heavy
light: B11 light
notes: also called PRASA A6 LC-D AB construct 7
For B12, the binding result is recorded as “no binding” in assay [8], “no binding” in assay [6] and “binds” in assay [7].
